From patent US20230106715A1 (BIOSION, published 2023)

Biological target: T1, human Siglec15-mouse Fc protein (human)
T1 construct: In house made
T1 chain: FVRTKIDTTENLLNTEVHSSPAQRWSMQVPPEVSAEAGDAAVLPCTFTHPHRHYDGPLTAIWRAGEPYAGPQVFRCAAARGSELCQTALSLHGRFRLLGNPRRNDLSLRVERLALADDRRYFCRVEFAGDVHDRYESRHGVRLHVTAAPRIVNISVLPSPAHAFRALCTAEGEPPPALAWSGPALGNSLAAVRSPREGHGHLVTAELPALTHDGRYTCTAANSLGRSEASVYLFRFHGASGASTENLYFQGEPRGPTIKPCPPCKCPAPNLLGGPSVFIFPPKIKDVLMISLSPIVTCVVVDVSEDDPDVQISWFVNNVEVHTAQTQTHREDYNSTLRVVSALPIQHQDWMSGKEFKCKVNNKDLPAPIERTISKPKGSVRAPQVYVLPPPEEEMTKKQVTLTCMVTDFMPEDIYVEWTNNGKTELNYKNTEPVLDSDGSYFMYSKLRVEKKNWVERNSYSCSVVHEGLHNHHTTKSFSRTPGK
Assay: cell based blocking FACS: human Siglec15-mouse Fc in solution, blocked ligand human LRRC4C on LRRC4C-3F12-1B9 cells
Method: The activities of the anti-Siglec15 antibodies to block binding of Siglec15 protein to cell surface LRRC4C were evaluated by Flow Cytometry (FACS), using in house made LRRC4C-3F12-1B9 cells. Briefly, HEK-293 cells (ATCC #CRL-1573) were transfected with pCMV-T-P plasmid constructs with the nucleotide sequence encoding human LRRC4C (amino acid residues Met1-Ile640 of uniprot #Q9HCJ2) inserted between EcoRI and XbaI, following the instruction of lipofectamine 3000 transfection reagent (Thermo Fisher). A stable cell named LRRC4C-3F12-1B9 was chosen for subsequent cell based ligand-blocking assay.
Briefly, the anti-Siglec15 antibodies of the disclosure or controls were diluted with human Siglec15-mouse Fc protein (prepared in-house with SEQ ID NO: 26, 8 μg/ml […] in FACS buffer), starting at 66.67 nM with a 5-fold serial dilution, and incubated at room temperature for 40 minutes. Then, LRRC4C-3F12-1B9 cells were harvested from cell culture flasks, washed twice and re-suspended in PBS containing 2% v/v Fetal Bovine Serum (FACS buffer). Then, 1×10⁵ cells per well in 96 well-plates were incubated in 100 μL of the antibody/Siglec15-mouse Fc mixtures for 40 minutes at 4° C. […] Cells were washed twice and re-suspended in FACS buffer. Fluorescence was measured using a Becton Dickinson FACS Canto II-HTS equipment. Data was analyzed using Graphpad Prism software and IC₅₀ values were reported.

B1: anti-Siglec15 benchmark (ch5G12) (antibody, human IgG1, kappa, V domains shown)
VH: QVQLQQPGAELVKPGASVKMSCKASGYTFTSYWITWVIQRPGQGLEWIGDIYCGSDTMHYNEKFKNKATLTVDTSSSTAYMQLSSLTSEDSAVYYCARWWDYGSSYDYFDYWGQGTTLTVSS
VL: DIKMTQSPSSMYASLGERVTITCKASQDINSYLSWFQQKPGKSPKTLIYRANRLVDGVPSRFSGSGSGQDYSLTISSLEYEDMGIYYCLQYDEFPYTFGGGTKLEIKR
notes: ch5G12 (US 20190202912A1); also called BM; Siglec15-ch5G9
IC50: 0.639 nM
